This is an account of results in paper PMC7039436.

The assay has as its target mono-ubiquitinated human FANCD2 (ubiquitin on Lysine 561) (human) (UniProt Q9BXW9). The assay is described as follows: biotin affinity purification with 3C protease elution; in vitro ubiquitination reaction with Avi-ubiquitin loaded on avidin agarose, 2 hrs 4 °C, washed with 10 CV 50 mM Tris-HCl pH 7.4, 150 mM NaCl, 10% glycerol, 1 mM DTT; eluted overnight with 100 nM GST-HRV-3C; Coomassie gel.

“mono-ubiquitinated human FANCI (ubiquitin on Lysine 523) (from UniProt Q9NVI1 1-1328; P0CG47 1-76) (natural protein)” yielded a stoichiometry N of 1.

Usually stoichiometry N stands for the number of molecules, sites or subunits per partner or assembly.
